Results on one molecule are retold here after paper PMC2705800, “Nucleocytoplasmic Shuttling of the TACC Protein Mia1p/Alp7p Is Required for Remodeling of Microtubule Arrays during the Cell Cycle” (PLoS ONE, 2009).

This assay addresses T1, MBP-Mia1p-MutNES4 (S. pombe, UniProt Q9URY2 1-474, L461A (AVAAMDQANA; Leu/Ile residues 461, 463, 468 and 470) | I463A (AVAAMDQANA; …).
T1 construct: Cloned into the pAD2a vector (MBP upstream of the multiple cloning site), as m1; also called Mia1-MutNES4; NES mutant version of Mia1p; source: E. coli BL21 (DE3) carrying the pG-KJE8 chaperone plasmid; not shown: MBP, N-terminal, kept
T1 sequence (looked up): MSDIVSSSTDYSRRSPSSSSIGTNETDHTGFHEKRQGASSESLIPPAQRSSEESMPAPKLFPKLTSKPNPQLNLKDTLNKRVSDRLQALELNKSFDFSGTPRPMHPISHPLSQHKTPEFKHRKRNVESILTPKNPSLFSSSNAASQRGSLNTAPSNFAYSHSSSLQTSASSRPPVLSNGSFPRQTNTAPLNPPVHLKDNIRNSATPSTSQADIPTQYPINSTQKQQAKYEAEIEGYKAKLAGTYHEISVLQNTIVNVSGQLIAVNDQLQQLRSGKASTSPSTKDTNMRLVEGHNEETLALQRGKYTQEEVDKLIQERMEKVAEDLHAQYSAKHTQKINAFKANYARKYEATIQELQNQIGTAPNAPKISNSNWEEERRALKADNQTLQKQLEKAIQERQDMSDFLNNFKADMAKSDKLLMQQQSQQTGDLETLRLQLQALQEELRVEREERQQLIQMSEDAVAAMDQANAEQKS
Nature of the assay: pull-down; MBP fusion held on amylose resin, incubated 1 hour at 4°C with soluble total lysate of Alp14p-13myc expressing mia1Δ S. pombe cells; Buffer A (20 mM Tris-HCl pH 7.4, 400 mM NaCl, 1 mM EDTA, 10 mM β-mercaptoethanol); washed 3 times; Alp14p-myc detected with anti-myc antibody, MBP proteins by Coomassie. The conditions noted are these: one partner purified.

B1: Alp14p-13myc (natural protein, S. pombe, UniProt O94534 1-809, looked up)
chain: MSQDQEEDYSKLPLESRIVHKVWKVRLSAYEECSKSFSLSADGSDNCFELWNNQSELWKSVLTDSNVAAQEAGTAAFVAYCRFSDPSHLLKAREISVLSISEKCLTSPRAGTRENALEALMLLVEADSAAPVIESIIPSLSARSPKVIASNVAAIASLVEQFGAKVIPSKMIIPHISNLFGHADKNVRKEASRLTVNIYRWTGDPLKDLLFKDLRPVQTKELESLFAELPTEPPKQTRFLKSQQPTSEPNVETQVEEQPALENEESEPEPSDDQFDLVEEVDVLPNVDPNLETLMASSKWKDRKEALDKLLPVLSQPKIKDNDFFNLVAILTKSVSKDANIMVVINAAHCIQAMAKGLRSNFSKYASTSINALLERSKEKKANVIESLSSAMDAVLATSSLDDLAELIASFAGNKNPQIKSSCFSLFSRSFSNMTSLPSKFTVDTCAKACVPGVSDTFEPVRSAAAEALGVLMKLVGERAINQYLSPLDDIRKSKIRSFYETATVKAKAPTKKSKVKPSKQEESKVVVPSNAKAVKKSVVPSSPVVPSPRKATNKSLSMDVSKGNAFENGPLLPRPTTRPVSRGLSRGTSSSLQQKVKASTPLNSGALNETVQNLKNMELDDPAPQPAKHSRVDRYEHPKVLEDNDSTISSLESLKRENEELREQLKVEHEENISMQKQLSELKGELNTLRSARKASPIGDRKPAFMRRANTDFLELSTSPSFQRSVREFEPTRPKLYSSIDVNQRSPLASAKTNGNFTFHAELPRSPFSSRANNINPDWTKAIDLAAKLKQKITEMKQTDQRHQGLIH
notes: Alp14p, TOG protein of Schizosaccharomyces pombe, partner of Mia1p/Alp7p; also called Alp14p-myc; Alp14p/TOG; source: S. pombe mia1Δ cells expressing Alp14p-13myc, total cell lysate
As for B1, the “ratio of Alp14p-myc pulled down, against MBP-Mia1p” value was 0.26 ratio to MBP-Mia1p.
